Earlier results on one substance are cited in PMC3800467.

In this data set the target is RRGHYY peptide.

Take TEM1 β-lactamase (from UniProt P62593): the Ki is 140 µM.
